{"source": "patent US20260176659A1", "about": "“IMPROVED METHOD FOR THE PRODUCTION OF NATURAL VANILLIN” (BASE SE, priority 2022, published 2026)", "molecules": {"B1": {"name": "CO-25: cleavage oxygenase from Novosphingobium aromaticivorans (Uniprot: Q2GA76), SEQ ID NO: 134 (protein)", "chain": "MAQFPNTPSFTGFNTPSRIEADIADLAHEGTIPQGLNGAFYRVQPDPQFPPRLDDDIAFNGDGMITRFHIHDGQVDFRQRWAKTDKWKLENAAGKALFGAYRNPLTDDEAVKGEIRSTANTNAFVFGGKLWAMKEDSPALVMDPATMETFGFEKFGGKMTGQTFTAHPKVDPKTGNMVAIGYAASGLCTDDVTYMEVSPEGELVREVWFKVPYYCMMHDFGITEDYLVLHIVPSIGSWERLEQGKPHFGFDTTMPVHLGIIPRRDGVRQEDIRWFTRDNCFASHVLNAWQEGTKIHFVTCEAKNNMFPFFPDVHGAPFNGMEAMSHPTDWVVDMASNGEDFAGIVKLSDTAAEFPRIDDRFTGQKTRHGWFLEMDMKRPVELRGGSAGGLLMNCLFHKDFETGREQHWWCGPVSSLQEPCFVPRAKDAPEGDGWIVQVCNRLEEQRSDLLIFDALDIEKGPVATVNIPIRLRFGLHGNWANADEIGLAEKVLAA", "modifications": "Novosphingobium aromaticivorans"}}, "assay_type_in_all_cases": "biochemical", "key": {"[1]": {"experiment": "Subsequent screening of alkene cleavage oxygenases: activity with coniferyl alcohol", "experimental": "Therefore, 50 mL TB-Kan medium in a 250 mL shake flask were inoculated with an overnight preculture of E. coi BL21 (DE3) carrying a pET-28a plasmid encoding CO-25 in the expression cassette. At OD600 ˜0.8-1, the expression was induced with 0.1 mM IPTG and the culture incubated at 25° C. for 20 hours. 0.5 mM FeSO4*7H2O was added together with the inducer. Then, the cells were disrupted by sonication in Glycine-NaOH 50 mM pH 9.0 containing 1 mM FeSO4*7H2O and 1 mM sodium ascorbate. After centrifugation, the cell free extract was lyophilized and stored at −20° C. From 50 mL cell culture we obtained 235 mg of freeze-dried cell free extract."}, "[2]": {"experiment": "Bioconversion of eugenol to vanillin: one-pot concurrent cascade EUGO + alkene cleavage oxygenase (5 mM scale)", "conditions": "5 mM eugenol; for Intermediate and product distribution at 24 hours 2a [%] / Intermediate and product distribution at 24 hours 3a [%] / Intermediate and product distribution at 24 hours 5a [%] / 2a / 3a / 5a / Conv. [%] ((3a mM)/5*100): EUGO 0.5 mg CFE, CO-25 3 mg CFE, catalase 5 mg; for 2a / 3a / 5a / Conv. [%] ((3a mM)/5*100): 24 hours", "how_it_was_run": "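Cell-free extracts of EUGO (0.5 mg) and cleavage oxygenase (3 mg) were combined with catalase, 1 mM FeSO4 and 1 mM ascorbate in glycine-NaOH pH 9.0 (or Tris-HCl pH 8.0). The cascade ran with 5 mM eugenol (5% ethanol/DMSO cosolvent) at 30° C and 120 rpm overnight. Methanol-quenched samples were analysed by HPLC at 280/340 nm.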"}, "[3]": {"experiment": "Conversion of 50 mM coniferyl alcohol to vanillin by CO-25", "conditions": "for Intermediate and product distribution at 24 hours 2a [%] / Intermediate and product distribution at 24 hours 3a [%] / Intermediate and product distribution at 24 hours 5a [%] / 2a / 3a / 5a / Conv. [%]: CO-25 3 mg CFE, catalase 4 mg, 0.4 mL, 50 mM coniferyl alcohol 2a; for 2a / 3a / 5a / Conv. [%]: 24 hours", "experimental": "In each well of a deep-well-plate sealed with a gas permeable tape we mixed CO-25 (3 mg CFE) and catalase (4 mg) with coniferyl alcohol 2a (3.6 mg, 0.02 mL from 1M stock, final conc.: 50 mM) to a final volume of 0.4 mL. After one day incubation shaking at 290 rpm we obtained 40-46% conversion of coniferyl alcohol 2a to vanillin 3a (Table 10)."}}, "note": "Where “and” joins values, the source holds several entries; their conditions need not be identical. Identical values can stand only once.", "data": [{"molecule": "B1", "values": [{"measurement": "activity with coniferyl alcohol in comparison to NOV1 mutant S283F", "setting": "[1]", "result": "significant higher activity"}, {"measurement": "Intermediate and product distribution at 24 hours 2a [%]", "setting": "[2]; pH 8", "result": "16.4% and 17.1%"}, {"measurement": "Intermediate and product distribution at 24 hours 3a [%]", "setting": "[2]; pH 8", "result": "83.1% and 82.4%"}, {"measurement": "Intermediate and product distribution at 24 hours 5a [%]", "setting": "[2]; pH 8", "result": 0.5, "unit": "%"}, {"measurement": "2a", "setting": "[2]; pH 8", "result": "4.18 mM and 4.39 mM"}, {"measurement": "3a", "setting": "[2]; pH 8", "result": "4.18 mM and 4.39 mM"}, {"measurement": "5a", "setting": "[2]; pH 8", "result": 0.03, "unit": "mM"}, {"measurement": "Conv. [%] ((3a mM)/5*100)", "setting": "[2]; pH 8", "result": "83.5% and 87.7%"}, {"measurement": "Intermediate and product distribution at 24 hours 2a [%]", "setting": "[2]; pH 9", "result": "12.8% and 11.6%"}, {"measurement": "Intermediate and product distribution at 24 hours 3a [%]", "setting": "[2]; pH 9", "result": "86.3% and 87.5%"}, {"measurement": "Intermediate and product distribution at 24 hours 5a [%]", "setting": "[2]; pH 9", "result": 0.9, "unit": "%"}, {"measurement": "2a", "setting": "[2]; pH 9", "result": "4.31 mM and 4.21 mM"}, {"measurement": "3a", "setting": "[2]; pH 9", "result": "4.31 mM and 4.21 mM"}, {"measurement": "5a", "setting": "[2]; pH 9", "result": "0.05 mM and 0.04 mM"}, {"measurement": "Conv. [%] ((3a mM)/5*100)", "setting": "[2]; pH 9", "result": "86.2% and 84.2%"}, {"measurement": "conversion to vanillin 3a", "setting": "[2]; EUGO and CO-25, 0.5 mL scale, pH 8 and 9", "result": "83-88%"}, {"measurement": "Intermediate and product distribution at 24 hours 2a [%]", "setting": "[3]; pH 8", "result": 47.7, "unit": "%"}, {"measurement": "Intermediate and product distribution at 24 hours 3a [%]", "setting": "[3]; pH 8", "result": 51.1, "unit": "%"}, {"measurement": "Intermediate and product distribution at 24 hours 5a [%]", "setting": "[3]; pH 8", "result": 1.1, "unit": "%"}, {"measurement": "2a", "setting": "[3]; pH 8", "result": 21.48, "unit": "mM"}, {"measurement": "3a", "setting": "[3]; pH 8", "result": 23.01, "unit": "mM"}, {"measurement": "5a", "setting": "[3]; pH 8", "result": 0.52, "unit": "mM"}, {"measurement": "Conv. [%]", "setting": "[3]; pH 8", "result": 46.0, "unit": "%"}, {"measurement": "Intermediate and product distribution at 24 hours 2a [%]", "setting": "[3]; pH 9", "result": 52.5, "unit": "%"}, {"measurement": "Intermediate and product distribution at 24 hours 3a [%]", "setting": "[3]; pH 9", "result": 45.7, "unit": "%"}, {"measurement": "Intermediate and product distribution at 24 hours 5a [%]", "setting": "[3]; pH 9", "result": 1.9, "unit": "%"}, {"measurement": "2a", "setting": "[3]; pH 9", "result": 22.87, "unit": "mM"}, {"measurement": "3a", "setting": "[3]; pH 9", "result": 19.92, "unit": "mM"}, {"measurement": "5a", "setting": "[3]; pH 9", "result": 0.81, "unit": "mM"}, {"measurement": "Conv. [%]", "setting": "[3]; pH 9", "result": 39.8, "unit": "%"}, {"measurement": "conversion of coniferyl alcohol 2a to vanillin 3a", "setting": "[3]; CO-25, 50 mM 2a, one day incubation", "result": "40-46%"}]}]}
